Data reported in patent publication US20140087995A1 (published 2014).
Numbered stars: 1 amine (or outer) side, 2 acyl side, 3 side chain; on linkers, the order of the positions; unused ones are H or OH. Bridge positions count the residues as written; N and C are the ends. Side chains are listed from the residue outwards. Ends that are not written are not given here. * marks the point of attachment. C20 diacid = O=C(O)CCCCCCCCCCCCCCCCCCC(=O)*; γGlu = O=C(O)[C@H](CCC(=O)[*:2])N[*:1]; AEEA = NCCOCCOCC(=O)O

T1: human amylin receptor (amylin 3(a) receptor: human calcitonin receptor plus RAMP-3) (human, UniProt P30988 25-474; O60896 24-148, limits assumed)
T1 sequence (looked up) 1: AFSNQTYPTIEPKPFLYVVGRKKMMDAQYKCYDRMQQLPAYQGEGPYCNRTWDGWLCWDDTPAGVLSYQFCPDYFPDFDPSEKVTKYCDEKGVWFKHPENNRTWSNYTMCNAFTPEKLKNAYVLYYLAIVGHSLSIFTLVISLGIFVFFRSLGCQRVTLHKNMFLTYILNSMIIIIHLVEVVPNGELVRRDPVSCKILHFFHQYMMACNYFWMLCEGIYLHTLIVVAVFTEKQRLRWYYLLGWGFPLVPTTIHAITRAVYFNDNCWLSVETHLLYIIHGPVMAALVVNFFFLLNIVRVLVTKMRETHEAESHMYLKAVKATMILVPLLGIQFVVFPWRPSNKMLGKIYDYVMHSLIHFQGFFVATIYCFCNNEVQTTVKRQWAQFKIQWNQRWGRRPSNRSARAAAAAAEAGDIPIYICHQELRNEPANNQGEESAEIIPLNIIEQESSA
T1 sequence (looked up) 2: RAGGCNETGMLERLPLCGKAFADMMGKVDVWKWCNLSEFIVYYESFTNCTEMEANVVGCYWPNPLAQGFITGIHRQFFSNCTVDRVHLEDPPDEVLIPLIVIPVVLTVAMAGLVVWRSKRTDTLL

T2: human calcitonin receptor (human, UniProt P30988 25-474)
T2 sequence (looked up): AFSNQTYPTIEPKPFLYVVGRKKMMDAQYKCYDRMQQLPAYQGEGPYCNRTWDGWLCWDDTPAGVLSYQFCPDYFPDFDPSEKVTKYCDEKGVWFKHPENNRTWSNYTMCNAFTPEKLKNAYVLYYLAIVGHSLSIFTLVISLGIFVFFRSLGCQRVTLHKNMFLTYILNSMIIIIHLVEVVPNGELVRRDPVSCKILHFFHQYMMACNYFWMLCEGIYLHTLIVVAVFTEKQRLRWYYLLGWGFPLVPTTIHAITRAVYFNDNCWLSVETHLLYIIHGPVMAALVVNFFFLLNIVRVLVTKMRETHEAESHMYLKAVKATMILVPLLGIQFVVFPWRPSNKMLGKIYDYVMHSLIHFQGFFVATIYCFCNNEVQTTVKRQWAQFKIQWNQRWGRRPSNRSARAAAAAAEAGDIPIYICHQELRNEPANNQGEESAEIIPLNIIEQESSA


Columns and labels:
[1] = target: T1, human amylin receptor (amylin 3(a) …); assay: cell-based or functional assay
[2] = target: T2, human calcitonin receptor; assay: cell-based or functional assay

| Binder | Ratio hCT/hAmylin funct. [1] | hAmylin-R funct. EC50 [1] | hCTR funct. EC50 [2] |
| --- | --- | --- | --- |
| K([AEEA-γGlu-C20 diacid])CNTATCATQRLANFLRHSSPNFGAIPSSTNVGPNTY-NH2 (disulfide 2-7; N-terminus assumed; SMILES CC[C@H](C)[C@H](NC(=O)[C@H](C)NC(=O)CNC(=O)[C@H](Cc1ccccc1)NC(=O)[C@H](CC(N)=O)NC(=O)[C@@H]1CCCN1C(=O)[C@H](CO)NC(=O)[C@H](CO)NC(=O)[C@H](Cc1c[nH]cn1)NC(=O)[C@H](CCCNC(=N)N)NC(=O)[C@H](CC(C)C)NC(=O)[C@H](Cc1ccccc1)NC(=O)[C@H](CC(N)=O)NC(=O)[C@H](C)NC(=O)[C@H](CC(C)C)NC(=O)[C@H](CCCNC(=N)N)NC(=O)[C@H](CCC(N)=O)NC(=O)[C@@H](NC(=O)[C@H](C)NC(=O)[C@@H]1CSSC[C@H](NC(=O)[C@@H](N)CCCCNC(=O)COCCOCCNC(=O)CC[C@H](NC(=O)CCCCCCCCCCCCCCCCCCC(=O)O)C(=O)O)C(=O)N[C@@H](CC(N)=O)C(=O)N[C@@H]([C@@H](C)O)C(=O)N[C@@H](C)C(=O)N[C@@H]([C@@H](C)O)C(=O)N1)[C@@H](C)O)C(=O)N1CCC[C@H]1C(=O)N[C@@H](CO)C(=O)N[C@@H](CO)C(=O)N[C@H](C(=O)N[C@@H](CC(N)=O)C(=O)N[C@H](C(=O)NCC(=O)N1CCC[C@H]1C(=O)N[C@@H](CC(N)=O)C(=O)N[C@H](C(=O)N[C@@H](Cc1ccc(O)cc1)C(N)=O)[C@@H](C)O)C(C)C)[C@@H](C)O, Synthetic acylated analogue of human amylin; also called compound 50) | 17.4 ratio | 0.038 nM | 0.662 nM |
| K([γGlu-C20 diacid])CNTATCATQRLAEFLRHSSPNFGAIPSSTNVGSRTY-NH2 (disulfide 2-7; N-terminus assumed; SMILES CC[C@H](C)[C@H](NC(=O)[C@H](C)NC(=O)CNC(=O)[C@H](Cc1ccccc1)NC(=O)[C@H](CC(N)=O)NC(=O)[C@@H]1CCCN1C(=O)[C@H](CO)NC(=O)[C@H](CO)NC(=O)[C@H](Cc1c[nH]cn1)NC(=O)[C@H](CCCNC(=N)N)NC(=O)[C@H](CC(C)C)NC(=O)[C@H](Cc1ccccc1)NC(=O)[C@H](CCC(=O)O)NC(=O)[C@H](C)NC(=O)[C@H](CC(C)C)NC(=O)[C@H](CCCNC(=N)N)NC(=O)[C@H](CCC(N)=O)NC(=O)[C@@H](NC(=O)[C@H](C)NC(=O)[C@@H]1CSSC[C@H](NC(=O)[C@@H](N)CCCCNC(=O)CC[C@H](NC(=O)CCCCCCCCCCCCCCCCCCC(=O)O)C(=O)O)C(=O)N[C@@H](CC(N)=O)C(=O)N[C@@H]([C@@H](C)O)C(=O)N[C@@H](C)C(=O)N[C@@H]([C@@H](C)O)C(=O)N1)[C@@H](C)O)C(=O)N1CCC[C@H]1C(=O)N[C@@H](CO)C(=O)N[C@@H](CO)C(=O)N[C@H](C(=O)N[C@@H](CC(N)=O)C(=O)N[C@H](C(=O)NCC(=O)N[C@@H](CO)C(=O)N[C@@H](CCCNC(=N)N)C(=O)N[C@H](C(=O)N[C@@H](Cc1ccc(O)cc1)C(N)=O)[C@@H](C)O)C(C)C)[C@@H](C)O, Synthetic acylated analogue of human amylin; also called compound 51) | 14 ratio | 0.372 nM | 5.22 nM |
| K([γGlu-γGlu-C20 diacid])CNTATCATQRLADFLRHSSPNFGAIPSSTNVGSDTY-NH2 (disulfide 2-7; N-terminus assumed; SMILES CC[C@H](C)[C@H](NC(=O)[C@H](C)NC(=O)CNC(=O)[C@H](Cc1ccccc1)NC(=O)[C@H](CC(N)=O)NC(=O)[C@@H]1CCCN1C(=O)[C@H](CO)NC(=O)[C@H](CO)NC(=O)[C@H](Cc1c[nH]cn1)NC(=O)[C@H](CCCNC(=N)N)NC(=O)[C@H](CC(C)C)NC(=O)[C@H](Cc1ccccc1)NC(=O)[C@H](CC(=O)O)NC(=O)[C@H](C)NC(=O)[C@H](CC(C)C)NC(=O)[C@H](CCCNC(=N)N)NC(=O)[C@H](CCC(N)=O)NC(=O)[C@@H](NC(=O)[C@H](C)NC(=O)[C@@H]1CSSC[C@H](NC(=O)[C@@H](N)CCCCNC(=O)CC[C@H](NC(=O)CC[C@H](NC(=O)CCCCCCCCCCCCCCCCCCC(=O)O)C(=O)O)C(=O)O)C(=O)N[C@@H](CC(N)=O)C(=O)N[C@@H]([C@@H](C)O)C(=O)N[C@@H](C)C(=O)N[C@@H]([C@@H](C)O)C(=O)N1)[C@@H](C)O)C(=O)N1CCC[C@H]1C(=O)N[C@@H](CO)C(=O)N[C@@H](CO)C(=O)N[C@H](C(=O)N[C@@H](CC(N)=O)C(=O)N[C@H](C(=O)NCC(=O)N[C@@H](CO)C(=O)N[C@@H](CC(=O)O)C(=O)N[C@H](C(=O)N[C@@H](Cc1ccc(O)cc1)C(N)=O)[C@@H](C)O)C(C)C)[C@@H](C)O, Synthetic acylated analogue of human amylin; also called compound 2) | 16.4 ratio | 0.182 nM | 3 nM |
| K([γGlu-C20 diacid])CNTATCATQRLANFLRHSSPNFGAIPSSTNVGSETY-NH2 (disulfide 2-7; N-terminus assumed; SMILES CC[C@H](C)[C@H](NC(=O)[C@H](C)NC(=O)CNC(=O)[C@H](Cc1ccccc1)NC(=O)[C@H](CC(N)=O)NC(=O)[C@@H]1CCCN1C(=O)[C@H](CO)NC(=O)[C@H](CO)NC(=O)[C@H](Cc1c[nH]cn1)NC(=O)[C@H](CCCNC(=N)N)NC(=O)[C@H](CC(C)C)NC(=O)[C@H](Cc1ccccc1)NC(=O)[C@H](CC(N)=O)NC(=O)[C@H](C)NC(=O)[C@H](CC(C)C)NC(=O)[C@H](CCCNC(=N)N)NC(=O)[C@H](CCC(N)=O)NC(=O)[C@@H](NC(=O)[C@H](C)NC(=O)[C@@H]1CSSC[C@H](NC(=O)[C@@H](N)CCCCNC(=O)CC[C@H](NC(=O)CCCCCCCCCCCCCCCCCCC(=O)O)C(=O)O)C(=O)N[C@@H](CC(N)=O)C(=O)N[C@@H]([C@@H](C)O)C(=O)N[C@@H](C)C(=O)N[C@@H]([C@@H](C)O)C(=O)N1)[C@@H](C)O)C(=O)N1CCC[C@H]1C(=O)N[C@@H](CO)C(=O)N[C@@H](CO)C(=O)N[C@H](C(=O)N[C@@H](CC(N)=O)C(=O)N[C@H](C(=O)NCC(=O)N[C@@H](CO)C(=O)N[C@@H](CCC(=O)O)C(=O)N[C@H](C(=O)N[C@@H](Cc1ccc(O)cc1)C(N)=O)[C@@H](C)O)C(C)C)[C@@H](C)O, Synthetic acylated analogue of human amylin; also called compound 27) [N^ε1-[(4S)-4-carboxy-4-(19-carboxynonadecanoylamino)butanoyl]-[Arg17,Pro21,Pro27,Glu35]-h-amylin] | 22.6 ratio | 0.133 nM | 3 nM |
| K([γGlu-C20 diacid])CNTATCATQRLANFLRHSSPNFGAIPSSTNVGSKTY-NH2 (disulfide 2-7; N-terminus assumed; SMILES CC[C@H](C)[C@H](NC(=O)[C@H](C)NC(=O)CNC(=O)[C@H](Cc1ccccc1)NC(=O)[C@H](CC(N)=O)NC(=O)[C@@H]1CCCN1C(=O)[C@H](CO)NC(=O)[C@H](CO)NC(=O)[C@H](Cc1c[nH]cn1)NC(=O)[C@H](CCCNC(=N)N)NC(=O)[C@H](CC(C)C)NC(=O)[C@H](Cc1ccccc1)NC(=O)[C@H](CC(N)=O)NC(=O)[C@H](C)NC(=O)[C@H](CC(C)C)NC(=O)[C@H](CCCNC(=N)N)NC(=O)[C@H](CCC(N)=O)NC(=O)[C@@H](NC(=O)[C@H](C)NC(=O)[C@@H]1CSSC[C@H](NC(=O)[C@@H](N)CCCCNC(=O)CC[C@H](NC(=O)CCCCCCCCCCCCCCCCCCC(=O)O)C(=O)O)C(=O)N[C@@H](CC(N)=O)C(=O)N[C@@H]([C@@H](C)O)C(=O)N[C@@H](C)C(=O)N[C@@H]([C@@H](C)O)C(=O)N1)[C@@H](C)O)C(=O)N1CCC[C@H]1C(=O)N[C@@H](CO)C(=O)N[C@@H](CO)C(=O)N[C@H](C(=O)N[C@@H](CC(N)=O)C(=O)N[C@H](C(=O)NCC(=O)N[C@@H](CO)C(=O)N[C@@H](CCCCN)C(=O)N[C@H](C(=O)N[C@@H](Cc1ccc(O)cc1)C(N)=O)[C@@H](C)O)C(C)C)[C@@H](C)O, Synthetic acylated analogue of human amylin; also called compound 35) [N^ε1-[(4S)-4-carboxy-4-(19-carboxynonadecanoylamino)butanoyl]-[Arg17,Pro21,Pro27,Lys35]-h-amylin] | 15 ratio | 0.364 nM | 5.46 nM |
| K([γGlu-γGlu-C20 diacid])CNTATCATQRLADFLRHSSPNFGAPLSSTNVGSDTY-NH2 (disulfide 2-7; N-terminus assumed; SMILES CC(C)C[C@H](NC(=O)[C@H](CCCNC(=N)N)NC(=O)[C@H](CCC(N)=O)NC(=O)[C@@H](NC(=O)[C@H](C)NC(=O)[C@@H]1CSSC[C@H](NC(=O)[C@@H](N)CCCCNC(=O)CC[C@H](NC(=O)CC[C@H](NC(=O)CCCCCCCCCCCCCCCCCCC(=O)O)C(=O)O)C(=O)O)C(=O)N[C@@H](CC(N)=O)C(=O)N[C@@H]([C@@H](C)O)C(=O)N[C@@H](C)C(=O)N[C@@H]([C@@H](C)O)C(=O)N1)[C@@H](C)O)C(=O)N[C@@H](C)C(=O)N[C@@H](CC(=O)O)C(=O)N[C@@H](Cc1ccccc1)C(=O)N[C@@H](CC(C)C)C(=O)N[C@@H](CCCNC(=N)N)C(=O)N[C@@H](Cc1c[nH]cn1)C(=O)N[C@@H](CO)C(=O)N[C@@H](CO)C(=O)N1CCC[C@H]1C(=O)N[C@@H](CC(N)=O)C(=O)N[C@@H](Cc1ccccc1)C(=O)NCC(=O)N[C@@H](C)C(=O)N1CCC[C@H]1C(=O)N[C@@H](CC(C)C)C(=O)N[C@@H](CO)C(=O)N[C@@H](CO)C(=O)N[C@H](C(=O)N[C@@H](CC(N)=O)C(=O)N[C@H](C(=O)NCC(=O)N[C@@H](CO)C(=O)N[C@@H](CC(=O)O)C(=O)N[C@H](C(=O)N[C@@H](Cc1ccc(O)cc1)C(N)=O)[C@@H](C)O)C(C)C)[C@@H](C)O, Synthetic acylated analogue of human amylin; also called compound 1) | 12 ratio | 0.224 nM | 2.7 nM |
